Test results published in patent US20250074942A1, “COMPOSITIONS AND METHODS FOR COVALENT PEPTIDE-BASED MODULATORS OF HLA-E” (Calico Life Sciences LLC, priority 2022, published 2025).
Where no end group is shown, it is not given here. The star is where a group is joined. FITC = O=C1OC2(c3ccc(O)cc3Oc3cc(O)ccc32)c2ccc(NC(=S)*)cc21; mSF = 3-benzenesulfonyl fluoride, O=S(=O)(F)c1cccc(*)c1

What was measured:
HLA-E [1] = biological target: T1, HLA-E (Homo sapiens, UniProt P13747); experiment: Binding to HLA-E by Fluorescence Polarization (FP); conditions: Table 18
T1 construct: [HLAE(hu)(22-305)]-Avitag]; made in house
Description: This example describes the analysis of binding of modified VL9 based peptides to HLA-E by Fluorescence Polarization (FP).
Briefly, proteins and VL9 or Qdm derived peptides were produced as described in EXAMPLE 2 and EXAMPLE 3 and binding to HLA-E was measured with Fluorescence Polarization.

[2] = biological target: T2, CD94/NKG2A binding to HLA-E (Homo sapiens, UniProt P13747); experiment: Biolayer interferometry (BLI): inhibition of CD94/NKG2A binding to peptide-loaded HLA-E; conditions: for BLI result: BLOD = below the limit of detection
T2 construct: [HLAE(hu)(22-305)]-Avitag]; made in house
Description: Proteins were produced as described in EXAMPLE 2 and peptides were synthesized as described in EXAMPLE 3.
BLI was performed on a ForteBio Octet Red96e instrument. All proteins were diluted in 1× Kinetic Buffer (10× Kinetic buffer, Sartorius 181105) diluted in 1×PBS. A Blocking Buffer step was introduced to lower non-specific binding to the streptavidin (SA) tips by diluting 5% bovine serum albumin (BSA) and 20 μg/mL Biocytin (Sigma B4261) in 1× Kinetic Buffer. Refolded and biotinylated [HLA-E+VL9] complexes were loaded onto SA biosensors (Forte 18-5019) at ˜5 μg/ml (100 nM) with the following steps: 60 sec baseline in 1× Kinetic Buffer, 180 sec loading, 60 sec blocking in Blocking Buffer and 60 sec baseline in 1× Kinetic Buffer, all at 25° C. and 1000 rpm. hSCD and oaFC-hSCD binding to immobilized HLA-E/B2M complexes was monitored at 200 nM by a 90 sec association step, followed by a 120 sec dissociation step. Data correction was performed as follows: first, aligning the data to the average of the last baseline step on the y-axis; second, by aligning the data to the dissociation step for inter-step correction; and third by filtering the data using Savitzky-Golay Filtering.
This example describes the analysis of inhibition of CD94-NKG2A binding to HLA-E by exemplary modified peptides by bio-layer interferometry (BLI).
Briefly, proteins and VL9 or Qdm derived peptides were produced as described in EXAMPLE 2 and EXAMPLE 3. BLI measurements to determine inhibition were performed as described in EXAMPLE 4.

HLA-E [3] = biological target: T1, HLA-E; experiment: Cross-linking of electrophilic peptides with [HLA-E+VL9], covalently bound HLA-E by LC-MS; format: binding; conditions: peptide in 10-fold excess with [HLA-E+VL9], 4 h at 37° C.
Description: The Cys peptide variants were equipped with a mSF warhead in a Pd-mediated coupling using Pd oxidative addition complex 1 (FIGS. 6A and 6B) X* indicating position functionalized with the electrophilic warhead). Electrophilic analogs of VL9 were subjected to cross-linking reactions in a 10-fold excess with [HLA-E+VL9] for 4 h at 37° C., and the amount of covalently bound HLA-E was determined by LC-MS as described in EXAMPLE 4.
Briefly, crosslinking reactions were performed as described in EXAMPLE 5.

[4] = Table 13, inhibition of CD94-NKG2A binding to HLA-E

BLI result [2, 4] | Substance | FP result (HLA-E [1]) | further results
 | ALCAPRLCL (cysteine pairing not given here) [Peptide P21] | Binding | 
 | AMCGALCLF (cysteine pairing not given here) [Peptide P32] | Binding | 
 | Ala-Leu-Cys-Ala-Pro-Arg-Leu-Cys-Leu-Gly-Gly-Lys(FITC) (ALCAPRLCLGGK(FITC); cysteine pairing not given here) [P21(FITC)] | Binding | 
 | Ala-Leu-Cys-Arg-Trp-Arg-Cys-Leu-Tyr-Gly-Gly-Lys(FITC) (ALCRWRCLYGGK(FITC); cysteine pairing not given here) [P28(FITC)] | Binding | 
 | Ala-Leu-Cys-Trp-Arg-Val-Pro-Cys-Thr (ALCWRVPCT-NH2; cysteine pairing not given here) [Peptide P20] | Binding | 
 | Ala-Leu-Cys-Trp-Arg-Val-Pro-Cys-Thr-Gly-Gly-Lys(FITC) (H-ALCWRVPCTGGK(FITC)-NH2; cysteine pairing not given here) [P20(FITC)] | Binding | 
 | Ala-Leu-Cys-Trp-His-Val-Pro-Cys-Gln-Gly-Gly-Lys(FITC) (ALCWHVPCQGGK(FITC); cysteine pairing not given here) [P23(FITC)] | Binding | 
 | Ala-Met-Cys-Gly-Ala-Leu-Cys-Leu-Phe-Gly-Gly-Lys(FITC) (AMCGALCLFGGK(FITC); cysteine pairing not given here) [P32(FITC)] | Binding | 
 | Ala-Met-Cys-Gly-Pro-Arg-Cys-Leu-Trp-Gly-Gly-Lys(FITC) (AMCGPRCLWGGK(FITC); cysteine pairing not given here) [P1(FITC)] | Binding | 
 | Gly-hAr-Nle-hAr-Gln-Mff-Ala-Cha-hAr-Leu [Peptide G1_B9] |  | BLI result ([2]; Table 15, peptides with additional amino acids at the N-terminus): inhibition
 | NH2-Cha-hAr-Ala-Leu-hAr-Gln-Met-Mff-hAr-OH [Peptide B5.scrambled] |  | inhibition of CD94/NKG2A binding (in words) ([2]; BLI, CD94-NKG2A 200 nM): no inhibition of binding
 | NH2-Cys(mSF)-Met-Ala-Pro-Arg-Thr-Leu-Phe-Leu-OH (H-C(mSF)MAPRTLFL-OH; SMILES CSCC[C@H](NC(=O)[C@@H](N)CSc1cccc(S(=O)(=O)F)c1)C(=O)N[C@@H](C)C(=O)N1CCC[C@H]1C(=O)N[C@@H](CCCNC(=N)N)C(=O)N[C@H](C(=O)N[C@@H](CC(C)C)C(=O)N[C@@H](Cc1ccccc1)C(=O)N[C@@H](CC(C)C)C(=O)O)[C@@H](C)O) [VL9—1Cys(mSF)] |  | cross-linking with HLA-E (in words) (HLA-E [3]): no or only trace amounts of cross-linking
 | NH2-Val-Cys(mSF)-Ala-Pro-Arg-Thr-Leu-Phe-Leu-OH (H-VC(mSF)APRTLFL-OH; SMILES CC(C)C[C@H](NC(=O)[C@H](Cc1ccccc1)NC(=O)[C@H](CC(C)C)NC(=O)[C@@H](NC(=O)[C@H](CCCNC(=N)N)NC(=O)[C@@H]1CCCN1C(=O)[C@H](C)NC(=O)[C@H](CSc1cccc(S(=O)(=O)F)c1)NC(=O)[C@@H](N)C(C)C)[C@@H](C)O)C(=O)O) [VL9—2Cys(mSF)] |  | cross-linking with HLA-E (in words) (HLA-E [3]): no or only trace amounts of cross-linking
 | NH2-Val-Met-Ala-Cys(mSF)-Arg-Thr-Leu-Phe-Leu-OH (H-VMAC(mSF)RTLFL-OH; SMILES CSCC[C@H](NC(=O)[C@@H](N)C(C)C)C(=O)N[C@@H](C)C(=O)N[C@@H](CSc1cccc(S(=O)(=O)F)c1)C(=O)N[C@@H](CCCNC(=N)N)C(=O)N[C@H](C(=O)N[C@@H](CC(C)C)C(=O)N[C@@H](Cc1ccccc1)C(=O)N[C@@H](CC(C)C)C(=O)O)[C@@H](C)O) [VL9—4Cys(mSF)] |  | amount of covalently bound (cross-linked) HLA-E (HLA-E [3]): 36%
 | NH2-Val-Met-Ala-Pro-Arg-Cys(mSF)-Leu-Phe-Leu-OH (H-VMAPRC(mSF)LFL-OH; SMILES CSCC[C@H](NC(=O)[C@@H](N)C(C)C)C(=O)N[C@@H](C)C(=O)N1CCC[C@H]1C(=O)N[C@@H](CCCNC(=N)N)C(=O)N[C@@H](CSc1cccc(S(=O)(=O)F)c1)C(=O)N[C@@H](CC(C)C)C(=O)N[C@@H](Cc1ccccc1)C(=O)N[C@@H](CC(C)C)C(=O)O) [VL9—6Cys(mSF)] |  | cross-linking with HLA-E (in words) (HLA-E [3]): no or only trace amounts of cross-linking
 | NH2-Val-Met-Ala-Pro-Arg-Thr-Cys(mSF)-Phe-Leu-OH (H-VMAPRTC(mSF)FL-OH; SMILES CSCC[C@H](NC(=O)[C@@H](N)C(C)C)C(=O)N[C@@H](C)C(=O)N1CCC[C@H]1C(=O)N[C@@H](CCCNC(=N)N)C(=O)N[C@H](C(=O)N[C@@H](CSc1cccc(S(=O)(=O)F)c1)C(=O)N[C@@H](Cc1ccccc1)C(=O)N[C@@H](CC(C)C)C(=O)O)[C@@H](C)O) [VL9—7Cys(mSF)] |  | amount of covalently bound (cross-linked) HLA-E (HLA-E [3]): 22%
 | NH2-Val-Met-Ala-Pro-Arg-Thr-Leu-Phe-Cys(mSF)-OH (H-VMAPRTLFC(mSF)-OH; SMILES CSCC[C@H](NC(=O)[C@@H](N)C(C)C)C(=O)N[C@@H](C)C(=O)N1CCC[C@H]1C(=O)N[C@@H](CCCNC(=N)N)C(=O)N[C@H](C(=O)N[C@@H](CC(C)C)C(=O)N[C@@H](Cc1ccccc1)C(=O)N[C@@H](CSc1cccc(S(=O)(=O)F)c1)C(=O)O)[C@@H](C)O) [VL9—9Cys(mSF)] |  | cross-linking with HLA-E (in words) (HLA-E [3]): no or only trace amounts of cross-linking
 | NH2-Val-Met-Ala-Pro-Cys(mSF)-Thr-Leu-Phe-Leu-OH (H-VMAPC(mSF)TLFL-OH; SMILES CSCC[C@H](NC(=O)[C@@H](N)C(C)C)C(=O)N[C@@H](C)C(=O)N1CCC[C@H]1C(=O)N[C@@H](CSc1cccc(S(=O)(=O)F)c1)C(=O)N[C@H](C(=O)N[C@@H](CC(C)C)C(=O)N[C@@H](Cc1ccccc1)C(=O)N[C@@H](CC(C)C)C(=O)O)[C@@H](C)O) [VL9—5Cys(mSF)] |  | cross-linking with HLA-E (in words) (HLA-E [3]): no or only trace amounts of cross-linking
 | NH2-Val-Met-Cys(mSF)-Pro-Arg-Thr-Leu-Phe-Leu-OH (H-VMC(mSF)PRTLFL-OH; SMILES CSCC[C@H](NC(=O)[C@@H](N)C(C)C)C(=O)N[C@@H](CSc1cccc(S(=O)(=O)F)c1)C(=O)N1CCC[C@H]1C(=O)N[C@@H](CCCNC(=N)N)C(=O)N[C@H](C(=O)N[C@@H](CC(C)C)C(=O)N[C@@H](Cc1ccccc1)C(=O)N[C@@H](CC(C)C)C(=O)O)[C@@H](C)O) [VL9—3Cys(mSF)] |  | amount of covalently bound (cross-linked) HLA-E (HLA-E [3]): 73%
 | Val-Met-Ala-Pro-Lys(FITC)-Thr-Leu-Phe-Leu (VMAPK(FITC)TLFL) [VL9—5Lys(FITC)] | Exchange | 
inhibition | hAr-Nle-hAr-Gln-Lys(CUM)-Ala-Cha-hAr-Leu [B9_5Lys(CUM)] |  | 
inhibition | hAr-Nle-hAr-Gln-Lys(DOTA)-Ala-Cha-hAr-Leu [B9_5Lys(DOTA)] |  | 
inhibition | hAr-Nle-hAr-Gln-Lys(FITC)-Ala-Cha-hAr-Leu [B9_5Lys(FITC)] |  | 
inhibition | hAr-Nle-hAr-Gln-Lys(ibu)-Ala-Cha-hAr-Leu [B9_5Lys(ibu)] |  | 
inhibition | hAr-Nle-hAr-Gln-Mff-Ala-Cha-Lys(ibu)-Leu [B9_8Lys(ibu)] |  | 
inhibition | hAr-Nle-hAr-Gln-Mff-Ala-Cha-hAr-Leu-Leu-Pro-Glu-Thr-Gly-Gly [Peptide B9_LPETGG] |  | 

Substance | BLI result [2, 4] | FP result (HLA-E [1]) | further results
Lys(TAMRA)-Nle-hAr-Gln-Mff-Ala-Cha-hAr-Leu [B9_1Lys(TAMRA)] | inhibition |  | 
NH2-Val-Met-Ala-Pro-Arg-Thr-Leu-Cys(mSF)-Leu-OH (H-VMAPRTLC(mSF)L-OH; SMILES CSCC[C@H](NC(=O)[C@@H](N)C(C)C)C(=O)N[C@@H](C)C(=O)N1CCC[C@H]1C(=O)N[C@@H](CCCNC(=N)N)C(=O)N[C@H](C(=O)N[C@@H](CC(C)C)C(=O)N[C@@H](CSc1cccc(S(=O)(=O)F)c1)C(=O)N[C@@H](CC(C)C)C(=O)O)[C@@H](C)O) [VL9—8Cys(mSF)] | inhibition |  | able to reduce the binding of CD94-NKG2A to HLA-E (in words) ([2]; BLI after a 2 h incubation of [HLA-E+VL9] with the electrophilic peptide): not; amount of covalently bound (cross-linked) HLA-E (HLA-E [3]): 87%
hAr-Nle-hAr-Gln-Lys(TAMRA)-Ala-Cha-hAr-Leu [B9_5Lys(TAMRA)] | inhibition |  | 
hAr-Nle-hAr-Gln-Mff-Ala-Cha-Lys(TAMRA)-Leu [B9_8Lys(TAMRA)] | inhibition |  | 
